PMC10527052, “X-ray Crystallographic Study of Preferred Spacing by the NF-κB p50 Homodimer on κB DNA” (Biomolecules, 2023)

Key:
[1] = biological target: T1, NF-kB p50 RHR homodimer (mouse (murine), UniProt P25799 39-363); assay: X-ray crystallography; 11-bp spacing, 3.0 A; Co-crystal structures only; crystallization conditions not in the material; protein stock in 25 mM Tris-HCl pH 7.4, 50 mM NaCl, 1 mM DTT; conditions: protein: recombinant; chain copies: 2
[2] = biological target: T1, NF-kB p50 RHR homodimer; assay: X-ray crystallography; 11-bp spacing, 2.80 A; Co-crystal structures only; crystallization conditions not in the material; protein stock in 25 mM Tris-HCl pH 7.4, 50 mM NaCl, 1 mM DTT; conditions: protein: recombinant; chain copies: 2; blunt
[3] = biological target: the molecule itself; assay: crystal structure; p50 RHR homodimer co-crystallised with κB DNA (IL-6 17-mer, 2.80 Å; NGAL 10-mer, 2.80 Å; Test 16-mer, 3.0 Å); hanging or sitting drop vapor diffusion; one complex per asymmetric unit
[4] = biological target: T1, NF-kB p50 RHR homodimer; assay: X-ray crystallography; 12-bp spacing, 2.80 A; 2:1 DNA:p50 dimer; second duplex almost unbound, contributes terminal G; Co-crystal structures only; crystallization conditions not in the material; protein stock in 25 mM Tris-HCl pH 7.4, 50 mM NaCl, 1 mM DTT; conditions: protein: recombinant; chain copies: 2; blunt; 2 duplexes per p50 dimer, stacked end-to-end

B1: Test kB-like DNA 16-mer (dsDNA)
DNA 1: TCAGGGGAATTCCCCTC
DNA 2: AGAGGGGAATTCCCCTG
binding result [1]: binds

B2: IL-6 kB DNA 17-mer (dsDNA)
DNA 1: TGTGGGATTTTCCCATG
DNA 2: CATGGGAAAATCCCACA
binding result [2]: binds

B3: murine NF-κB p50 subunit Rel homology region (amino acid residues 39–363) (domain or fragment, UniProt P25799 39-363, looked up)
chain: GPYLQILEQPKQRGFRFRYVCEGPSHGGLPGASSEKNKKSYPQVKICNYVGPAKVIVQLVTNGKNIHLHAHSLVGKHCEDGVCTVTAGPKDMVVGFANLGILHVTKKKVFETLEARMTEACIRGYNPGLLVHSDLAYLQAEGGGDRQLTDREKEIIRQAAVQQTKEMDLSVVRLMFTAFLPDSTGSFTRRLEPVVSDAIYDSKAPNASNLKIVRMDRTAGCVTGGEEIYLLCDKVQKDDIQIRFYEEEENGGVWEGFGDFSPTDVHRQFAIVFKTPKYKDVNITKPASVFVQLRRKSDLETSEPKPFLYYPEIKDKEEVQRKRQK
notes: 351-363 disordered in the crystals; murine amino acid numbering; also called p50 RHR; NF-κB p50 homodimer; source: E. coli BL21 (DE3), pET11a, purified (SP Sepharose, Superdex 75 size exclusion)
stoichiometry N [3]: 2

B4: NGAL kB DNA 10-mer (dsDNA)
DNA 1: GGGAATGTCC
DNA 2: GGACATTCCC
binding result [4]: binds
